Measurements published in patent US20240117018A1.

Legend:
Assay in all cases: cell-based or functional assay
[1] = biological target: HIV-1 Env of pseudovirus 3016.v5.c45 (HIV-1)
[2] = biological target: HIV-1 Env of pseudovirus SC422661.8 (HIV-1)
[3] = biological target: HIV-1 Env of pseudovirus Q259.d2.17 (HIV-1)
[4] = biological target: HIV-1 Env of pseudovirus 62357_14_D3_4589 (HIV-1)
[5] = biological target: HIV-1 Env of pseudovirus CNE21 (HIV-1)
[6] = biological target: HIV-1 Env of pseudovirus CNE20 (HIV-1)
[7] = biological target: HIV-1 Env of pseudovirus SC05_8C11_2344 (HIV-1)
[8] = biological target: HIV-1 Env of pseudovirus THRO4156.18 (HIV-1)
[9] = biological target: HIV-1 Env of pseudovirus ZM135M.PL10a (HIV-1)
[10] = biological target: HIV-1 Env of pseudovirus Ce703010054_2A2 (HIV-1)
[11] = biological target: HIV-1 Env of pseudovirus 6535.3 (HIV-1)
[12] = biological target: HIV-1 Env of pseudovirus WEAU_d15_410_787 (HIV-1)
[13] = biological target: HIV-1 Env of pseudovirus A07412M1.vrc12 (HIV-1)
[14] = biological target: HIV-1 Env of pseudovirus ZM247v1(Rev-) (HIV-1)
[15] = biological target: HIV-1 Env of pseudovirus Ce1176_A3 (HIV-1)
[16] = biological target: HIV-1 Env of pseudovirus CAP210.2.00.E8 (HIV-1)
[17] = biological target: HIV-1 Env of pseudovirus Du156.12 (HIV-1)
[18] = biological target: HIV-1 Env of pseudovirus ZM197M.PB7 (HIV-1)
[19] = biological target: HIV-1 Env of pseudovirus MS208.A1 (HIV-1)
[20] = biological target: HIV-1 Env of pseudovirus CNE19 (HIV-1)
[21] = biological target: HIV-1 Env of pseudovirus T278-50 (HIV-1)
[22] = biological target: HIV-1 Env of pseudovirus REJO4541.67 (HIV-1)
[23] = biological target: HIV-1 Env of pseudovirus HIV-001428-2.42 (HIV-1)
[24] = biological target: HIV-1 Env of pseudovirus CAAN5342.A2 (HIV-1)
[25] = biological target: HIV-1 Env of pseudovirus 6952.v1.c20 (HIV-1)
[26] = biological target: HIV-1 Env of pseudovirus 6545.v4.c1 (HIV-1)
[27] = biological target: HIV-1 Env of pseudovirus ZM233M.PB6 (HIV-1)
[28] = biological target: HIV-1 Env of pseudovirus 249M B10 (HIV-1)
[29] = biological target: HIV-1 Env of pseudovirus 231965.c01 (HIV-1)
[30] = biological target: HIV-1 Env of pseudovirus X1254_c3 (HIV-1)
[31] = biological target: HIV-1 Env of pseudovirus 620345.c01 (HIV-1)
[32] = biological target: HIV-1 Env of pseudovirus 9004SS_A3_4 (HIV-1)
[33] = biological target: HIV-1 Env of pseudovirus HIV-0013095-2.11 (HIV-1)
[34] = biological target: HIV-1 Env of pseudovirus 1006_11_C3_1601 (HIV-1)
[35] = biological target: HIV-1 Env of pseudovirus QH0692.42 (HIV-1)
[36] = biological target: HIV-1 Env of pseudovirus Q23.17 (HIV-1)

Substance: N49P7 (antibody)
- IC50 (neutralisation, TZM.bl cells) [1]: 0.221 µg/mL
- IC80 (neutralisation, TZM.bl cells) [1]: 1.04 µg/mL
- MPI [1]: 100
- IC50 [2]: 0.114 µg/mL
- IC80 [2]: 0.32 µg/mL
- MPI [2]: 100
- IC50 [3]: 0.332 µg/mL
- IC80 [3]: 2.47 µg/mL
- MPI [3]: 98
- IC50 [4]: 0.025 µg/mL
- IC80 [4]: 0.102 µg/mL
- MPI [4]: 100
- IC50 [5]: 0.756 µg/mL
- IC80 [5]: 6.02 µg/mL
- MPI [5]: 97
- IC50 [6]: 0.028 µg/mL
- IC80 [6]: 0.1 µg/mL
- MPI [6]: 100
- IC50 [7]: 0.164 µg/mL
- IC80 [7]: 0.403 µg/mL
- MPI [7]: 100
- IC50 [8]: 2.34 µg/mL
- IC80 [8]: 12.4 µg/mL
- MPI [8]: 99
- IC50 [9]: 0.2 µg/mL
- IC80 [9]: 0.96 µg/mL
- MPI [9]: 100
- IC50 [10]: 0.132 µg/mL
- IC80 [10]: 0.466 µg/mL
- MPI [10]: 100
- IC50 [11]: 0.186 µg/mL
- IC80 [11]: 0.598 µg/mL
- MPI [11]: 100
- IC50 [12]: 0.045 µg/mL
- IC80 [12]: 0.117 µg/mL
- MPI [12]: 100
- IC50 (neutralisation, TZM.bl cells) [13]: 0.108 µg/mL
- IC80 (neutralisation, TZM.bl cells) [13]: 0.645 µg/mL
- MPI [13]: 100
- IC50 [14]: 0.062 µg/mL
- IC80 [14]: 0.214 µg/mL
- MPI [14]: 100
- IC50 [15]: 0.204 µg/mL
- IC80 [15]: 0.589 µg/mL
- MPI [15]: 100
- IC50 [16]: 1.82 µg/mL
- IC80 [16]: 6.49 µg/mL
- MPI [16]: 100
- IC50 [17]: 0.032 µg/mL
- IC80 [17]: 0.086 µg/mL
- MPI [17]: 100
- IC50 [18]: 0.109 µg/mL
- IC80 [18]: 0.347 µg/mL
- MPI [18]: 100
- IC50 [19]: 0.12 µg/mL
- IC80 [19]: 0.479 µg/mL
- MPI [19]: 100
- IC50 [20]: 0.009 µg/mL
- IC80 [20]: 0.041 µg/mL
- MPI [20]: 100
- IC50 [21]: 22.3 µg/mL
- IC80 [21]: > 50 µg/mL
- MPI [21]: 75
- IC50 [22]: 0.015 µg/mL
- IC80 [22]: 0.049 µg/mL
- MPI [22]: 100
- IC50 [23]: 0.006 µg/mL
- IC80 [23]: 0.02 µg/mL
- MPI [23]: 100
- IC50 [24]: 0.409 µg/mL
- IC80 [24]: 1.21 µg/mL
- MPI [24]: 100
- IC50 (neutralisation, TZM.bl cells) [25]: 18.4 µg/mL
- IC80 (neutralisation, TZM.bl cells) [25]: 38.9 µg/mL
- MPI [25]: 91
- IC50 (neutralisation, TZM.bl cells) [26]: 2 µg/mL
- IC80 (neutralisation, TZM.bl cells) [26]: 14.7 µg/mL
- MPI [26]: 96
- IC50 [27]: 0.226 µg/mL
- IC80 [27]: 0.774 µg/mL
- MPI [27]: 100
- IC50 [28]: 0.081 µg/mL
- IC80 [28]: 0.377 µg/mL
- MPI [28]: 100
- IC50 (neutralisation, TZM.bl cells) [29]: 0.054 µg/mL
- IC80 (neutralisation, TZM.bl cells) [29]: 0.193 µg/mL
- MPI [29]: 100
- IC50 [30]: 2.97 µg/mL
- IC80 [30]: 13.6 µg/mL
- MPI [30]: 100
- IC50 [31]: 23.2 µg/mL
- IC80 [31]: 47.9 µg/mL
- MPI [31]: 82
- IC50 [32]: 0.125 µg/mL
- IC80 [32]: 0.39 µg/mL
- MPI [32]: 100
- IC50 [33]: 0.073 µg/mL
- IC80 [33]: 0.253 µg/mL
- MPI [33]: 100
- IC50 [34]: 0.044 µg/mL
- IC80 [34]: 0.158 µg/mL
- MPI [34]: 100
- IC50 [35]: 0.663 µg/mL
- IC80 [35]: 2.41 µg/mL
- MPI [35]: 100
- IC50 [36]: 0.052 µg/mL
- IC80 [36]: 0.21 µg/mL
- MPI [36]: 100
